Assay results taken from patent US20260217835A1.

Target: GCH065-G1T6v2/L0011-kT0
Test: CIEX peak area ratio; coexpression from mRNAs (heavy 1/light/heavy 2 = 1/4/1) in Expi293 cells

Sequence of GCH065-G1T6v2/L0011-kT0 (heavy, as listed by the source): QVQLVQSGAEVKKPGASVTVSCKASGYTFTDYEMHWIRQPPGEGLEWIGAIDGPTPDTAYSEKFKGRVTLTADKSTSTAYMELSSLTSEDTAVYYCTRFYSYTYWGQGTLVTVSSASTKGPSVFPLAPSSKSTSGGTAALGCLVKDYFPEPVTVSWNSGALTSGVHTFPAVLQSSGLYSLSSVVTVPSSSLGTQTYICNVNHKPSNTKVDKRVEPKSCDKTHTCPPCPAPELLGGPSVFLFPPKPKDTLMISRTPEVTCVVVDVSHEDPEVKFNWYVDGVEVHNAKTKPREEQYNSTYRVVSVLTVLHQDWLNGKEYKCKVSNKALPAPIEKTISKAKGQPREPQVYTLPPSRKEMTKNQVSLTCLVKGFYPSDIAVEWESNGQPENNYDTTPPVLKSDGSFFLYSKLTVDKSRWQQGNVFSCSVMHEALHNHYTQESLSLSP

B1: TR01H113-G1T6/L0011-kT0 (antibody, human IgG1, kappa, V domains shown)
VH: QVQLVESGGGVVQPGGSLRLSCAASGFTFSNAWMHWVRQAPGKGLEWVAQIKDKSQNYATYVAESVKGRFTISRADSKNSIYLQMNSLKTEDTAVYYCRYVHYAAGYGVDIWGQGTTVTVSS
VL: DIVMTQSPLSLPVTPGEPASISCRSSQPLVHSNRNTYLHWYQQKPGQAPRLLIYKVSNRFSGVPDRFSGSGSGTDFTLKISRVEAEDVGVYYCGQGTQVPYTFGQGTKLEIKR
Q: With B1 as the binder, how does the Heavy chain heteromultimer (TG, T1G2, QJ, Q3J4) (%) read?
A: Its Heavy chain heteromultimer (TG, T1G2, QJ, Q3J4) (%) is 2.07%.
